T1: CD101 (human, UniProt Q93033 21-1021)
T1 sequence (looked up): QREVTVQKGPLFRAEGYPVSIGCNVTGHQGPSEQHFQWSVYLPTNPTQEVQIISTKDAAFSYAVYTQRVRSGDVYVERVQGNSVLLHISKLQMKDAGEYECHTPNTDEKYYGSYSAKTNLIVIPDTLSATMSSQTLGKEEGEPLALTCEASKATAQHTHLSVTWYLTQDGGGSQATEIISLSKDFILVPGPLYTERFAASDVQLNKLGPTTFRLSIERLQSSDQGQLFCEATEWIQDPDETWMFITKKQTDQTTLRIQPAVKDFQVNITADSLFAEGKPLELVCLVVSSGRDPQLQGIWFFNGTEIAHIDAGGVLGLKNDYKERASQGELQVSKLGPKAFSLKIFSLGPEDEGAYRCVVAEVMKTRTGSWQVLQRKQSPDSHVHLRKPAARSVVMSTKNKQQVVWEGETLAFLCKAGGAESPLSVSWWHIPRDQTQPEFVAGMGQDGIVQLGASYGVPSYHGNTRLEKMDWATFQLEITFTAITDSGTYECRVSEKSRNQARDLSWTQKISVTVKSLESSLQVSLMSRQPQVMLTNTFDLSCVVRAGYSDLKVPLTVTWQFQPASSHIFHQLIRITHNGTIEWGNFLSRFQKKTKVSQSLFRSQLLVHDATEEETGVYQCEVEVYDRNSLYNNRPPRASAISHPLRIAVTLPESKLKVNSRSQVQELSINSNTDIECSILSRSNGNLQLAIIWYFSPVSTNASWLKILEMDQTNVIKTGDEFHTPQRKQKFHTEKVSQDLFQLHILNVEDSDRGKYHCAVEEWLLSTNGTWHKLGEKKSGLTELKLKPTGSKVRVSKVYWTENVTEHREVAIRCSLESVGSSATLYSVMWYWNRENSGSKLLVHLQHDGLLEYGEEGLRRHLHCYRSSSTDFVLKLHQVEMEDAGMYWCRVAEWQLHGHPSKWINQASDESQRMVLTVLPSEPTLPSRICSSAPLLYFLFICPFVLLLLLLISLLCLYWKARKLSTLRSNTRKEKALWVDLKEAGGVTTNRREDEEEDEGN

T2: CD101 (human, UniProt Q93033 21-1021)
T2 chain: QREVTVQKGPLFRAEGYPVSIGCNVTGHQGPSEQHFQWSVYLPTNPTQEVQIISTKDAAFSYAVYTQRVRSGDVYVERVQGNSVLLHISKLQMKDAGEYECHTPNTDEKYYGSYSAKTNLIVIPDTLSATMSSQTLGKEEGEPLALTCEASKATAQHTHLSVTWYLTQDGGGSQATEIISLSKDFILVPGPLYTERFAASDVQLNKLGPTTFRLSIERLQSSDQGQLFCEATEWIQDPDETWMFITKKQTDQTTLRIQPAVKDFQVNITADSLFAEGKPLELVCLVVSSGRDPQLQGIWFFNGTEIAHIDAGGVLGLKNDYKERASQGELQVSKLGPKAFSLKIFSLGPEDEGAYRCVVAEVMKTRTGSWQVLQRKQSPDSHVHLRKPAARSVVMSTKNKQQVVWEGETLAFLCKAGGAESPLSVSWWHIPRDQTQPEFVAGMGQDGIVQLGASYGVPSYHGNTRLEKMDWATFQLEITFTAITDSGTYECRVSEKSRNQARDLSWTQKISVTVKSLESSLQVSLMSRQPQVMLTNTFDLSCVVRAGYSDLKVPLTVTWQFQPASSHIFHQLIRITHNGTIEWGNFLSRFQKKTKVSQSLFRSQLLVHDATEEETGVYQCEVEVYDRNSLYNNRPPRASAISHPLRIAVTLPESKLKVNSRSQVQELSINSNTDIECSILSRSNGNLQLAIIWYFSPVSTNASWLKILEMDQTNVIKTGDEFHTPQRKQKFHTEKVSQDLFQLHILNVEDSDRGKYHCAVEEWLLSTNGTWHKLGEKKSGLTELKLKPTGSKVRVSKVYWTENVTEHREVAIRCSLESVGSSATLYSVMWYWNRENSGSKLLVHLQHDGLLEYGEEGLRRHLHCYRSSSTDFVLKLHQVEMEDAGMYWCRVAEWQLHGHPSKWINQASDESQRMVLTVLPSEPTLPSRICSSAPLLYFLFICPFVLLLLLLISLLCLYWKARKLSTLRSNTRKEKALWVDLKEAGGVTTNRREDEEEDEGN


Legend:
CD101 [1] = molecular target: T1, CD101; assay: cell-based or functional assay
CD101 [2] = molecular target: T2, CD101; assay: FACS
CD101 [3] = molecular target: T1, CD101; assay: FACS, culture supernatant on 293F-CD101 cells
Experimental: Expression vectors for humanized antibodies carrying a designed heavy-chain or light-chain sequence were transiently transfected into 293F cells in pairs according to a standard protocol. Specifically, PBS was added at 2 mL/well to a 6-well plate, then 2 μg of a pcDNA3.4-IgG1 expression vector and 2 μg of a pcDNA3.4-IgKc expression vector were added, and thorough mixing was conducted by pipetting up and down. 12 μL of a LVTransm transfection reagent was added, then thorough mixing was immediately conducted by pipetting up and down, and the plate was allowed to stand at room temperature for 10 min. A DNA/LVTransm complex was added to 3 mL of 293F cells, and gentle shaking was conducted for thorough mixing. The cells were further cultured for 3 d in a 37° C. and 5% CO₂ incubator, and a culture supernatant was collected through centrifugation and tested by FACS.
FACS was conducted according to a standard protocol. […] Cells were washed with PBS 3 times. 100 μL of a secondary antibody (PE-anti-human IgG, which was diluted 1:200) was added, thorough mixing was conducted, and incubation was conducted for 45 min at room temperature in the dark. Cells were washed with PBS 3 times and then resuspended with 500 μL of PBS. A fluorescence intensity was read by a multimode microplate reader for FACS analysis. […] In the follow-up experiments, the four combinations of VH1-VL1, VH1-VL2, VH3-VL1, and VH3-VL2 (hu.CA1 to hu.CA4) were taken as examples for antibody purification and affinity testing.

Binder | inhibitory effect for CD101 (flow cytometry of CD101 on Jurkat cells overexpressing CD101, 3 h, 1,600 ng/mL) (CD101 [1]) [%] | inhibitory effect for CD101 (flow cytometry of CD101 on Jurkat cells overexpressing CD101, 8 h, 1,600 ng/mL) (CD101 [1]) [%] | EC50 (CD101 [2]) [µg/mL] | binding result (CD101 [3])
19-A11-H3-B11-VH3VL2 humanized antibody (hu.CA4) (antibody, V domains shown) VH: EVQLVQSGAEVKKPGASVKVSCKASGFTLTEYTIHWVRQAPGQGLEWIGWFYPGSGGIKYNEKFQDRVTLTADTSISTVYMELSRLRSDDTVVYFCARHAFYRNYEYFDVWGTGTMVTVSS VL: DIVMTQAPLSLPVTPGTPASISCRSSKSLLHSNGITYLYWYLQKPGQSPQLLIYQMSNLASGVPDRFSSSGSGTDFTLKISRVEAEDVGVYYCAQNLELPLTFGAGTKLEIK | ~80 | ≥ 90 | 8.49 | –
humanized antibody VH1-VL1 (hu.CA1) (antibody, V domains shown) VH: EVQLVQSGAEVKKPGASVKVSCKASGFTLTEYTIHWVRQAPGQGLEWIGWFYPGSGGIKYNEKFQDRVTLTADESISTVYMELSRLRSDDTAVYFCARHAFYRNYEYFDVWGTGTMVTVSS VL: DIVMTQAPFSLPVTPGTPASISCRSSKSLLHSNGITYLYWYLQKPGQSPQLLIYQMSNLASGVPDRFSSSGSGTDFTLKISRVEAEDVGVYYCAQNLELPLTFGAGTKLEIK | ~80 | ≥ 90 | 7.9 | –
humanized antibody VH3-VL1 (hu.CA3) (antibody, V domains shown) VH: EVQLVQSGAEVKKPGASVKVSCKASGFTLTEYTIHWVRQAPGQGLEWIGWFYPGSGGIKYNEKFQDRVTLTADTSISTVYMELSRLRSDDTVVYFCARHAFYRNYEYFDVWGTGTMVTVSS VL: DIVMTQAPFSLPVTPGTPASISCRSSKSLLHSNGITYLYWYLQKPGQSPQLLIYQMSNLASGVPDRFSSSGSGTDFTLKISRVEAEDVGVYYCAQNLELPLTFGAGTKLEIK | ~80 | ≥ 90 | 11 | –
humanized antibody VH1-VL2 (hu.CA2) (antibody, V domains shown) VH: EVQLVQSGAEVKKPGASVKVSCKASGFTLTEYTIHWVRQAPGQGLEWIGWFYPGSGGIKYNEKFQDRVTLTADESISTVYMELSRLRSDDTAVYFCARHAFYRNYEYFDVWGTGTMVTVSS VL: DIVMTQAPLSLPVTPGTPASISCRSSKSLLHSNGITYLYWYLQKPGQSPQLLIYQMSNLASGVPDRFSSSGSGTDFTLKISRVEAEDVGVYYCAQNLELPLTFGAGTKLEIK | ~80 | ≥ 90 | 9.1 | –
19-A11-H3-B11 chimeric antibody (CA1) (antibody, V domains shown) VH: EVQLQQSGAELVRPGASVKLSCKASGFTLTEYTIHWVKQRSGQGLEWIGWFYPGSGGIKYNEKFKDKATLTADESSSTVYMELSRLTSEDSAVYFCARHAFYRNYEYFDVWGTGTTVTVSS VL: DIVMTQAAFSNPVTLGTSASISCRSSKSLLHSNGITYLYWYLQKPGQSPQLLIYQMSNLASGVPDRFSSSGSGTDFTLRISRVEAEDVGVYYCAQNLELPLTFGAGTKLELK | ~80 | ≥ 90 | 6.62 | –
humanized antibody VH1-VL3 (antibody, V domains shown, IgG1, kappa; tested as culture supernatant; also called VH-HM1 / VL-HM3) VH: EVQLVQSGAEVKKPGASVKVSCKASGFTLTEYTIHWVRQAPGQGLEWIGWFYPGSGGIKYNEKFQDRVTLTADESISTVYMELSRLRSDDTAVYFCARHAFYRNYEYFDVWGTGTMVTVSS VL: DIVMTQAPFSSPVTLGTPASISCRSSKSLLHSNGITYLYWYQQRPGQSPRLLIYQMSNLASGVPDRFSSSGSGTDFTLKISRVEAEDVGVYYCAQNLELPLTFGAGTKLEIK | – | – | – | binds
humanized antibody VH2-VL1 (antibody, V domains shown, IgG1, kappa; tested as culture supernatant; also called VH-HM2 / VL-HM1) VH: EVQLVQSGAEVKKPGASVKVSCKASGFTLTEYTIHWVRQAPGQGLEWIGWFYPGSGGIKYNEKFQDRVTLTADESASTVYMELSSLRSEDTAVYFCARHAFYRNYEYFDVWGTGTMVTVSS VL: DIVMTQAPFSLPVTPGTPASISCRSSKSLLHSNGITYLYWYLQKPGQSPQLLIYQMSNLASGVPDRFSSSGSGTDFTLKISRVEAEDVGVYYCAQNLELPLTFGAGTKLEIK | – | – | – | binds
humanized antibody VH2-VL2 (antibody, V domains shown, IgG1, kappa; tested as culture supernatant; also called VH-HM2 / VL-HM2) VH: EVQLVQSGAEVKKPGASVKVSCKASGFTLTEYTIHWVRQAPGQGLEWIGWFYPGSGGIKYNEKFQDRVTLTADESASTVYMELSSLRSEDTAVYFCARHAFYRNYEYFDVWGTGTMVTVSS VL: DIVMTQAPLSLPVTPGTPASISCRSSKSLLHSNGITYLYWYLQKPGQSPQLLIYQMSNLASGVPDRFSSSGSGTDFTLKISRVEAEDVGVYYCAQNLELPLTFGAGTKLEIK | – | – | – | binds
humanized antibody VH2-VL3 (antibody, V domains shown, IgG1, kappa; tested as culture supernatant; also called VH-HM2 / VL-HM3) VH: EVQLVQSGAEVKKPGASVKVSCKASGFTLTEYTIHWVRQAPGQGLEWIGWFYPGSGGIKYNEKFQDRVTLTADESASTVYMELSSLRSEDTAVYFCARHAFYRNYEYFDVWGTGTMVTVSS VL: DIVMTQAPFSSPVTLGTPASISCRSSKSLLHSNGITYLYWYQQRPGQSPRLLIYQMSNLASGVPDRFSSSGSGTDFTLKISRVEAEDVGVYYCAQNLELPLTFGAGTKLEIK | – | – | – | binds
humanized antibody VH3-VL3 (antibody, V domains shown, IgG1, kappa; tested as culture supernatant; also called VH-HM3 / VL-HM3) VH: EVQLVQSGAEVKKPGASVKVSCKASGFTLTEYTIHWVRQAPGQGLEWIGWFYPGSGGIKYNEKFQDRVTLTADTSISTVYMELSRLRSDDTVVYFCARHAFYRNYEYFDVWGTGTMVTVSS VL: DIVMTQAPFSSPVTLGTPASISCRSSKSLLHSNGITYLYWYQQRPGQSPRLLIYQMSNLASGVPDRFSSSGSGTDFTLKISRVEAEDVGVYYCAQNLELPLTFGAGTKLEIK | – | – | – | binds
humanized antibody VH4-VL1 (antibody, V domains shown, IgG1, kappa; tested as culture supernatant; also called VH-HM4 / VL-HM1) VH: EVQLVQSGAEVKKPGASVKVSCKASGFTLTEYTIHWVKQAPGQGLEWIGWFYPGSGGIKYNEKFQDRVTLTADESSSTVYMELSRLRSDDTAVYFCARHAFYRNYEYFDVWGTGTMVTVSS VL: DIVMTQAPFSLPVTPGTPASISCRSSKSLLHSNGITYLYWYLQKPGQSPQLLIYQMSNLASGVPDRFSSSGSGTDFTLKISRVEAEDVGVYYCAQNLELPLTFGAGTKLEIK | – | – | – | binds
humanized antibody VH4-VL2 (antibody, V domains shown, IgG1, kappa; tested as culture supernatant; also called VH-HM4 / VL-HM2) VH: EVQLVQSGAEVKKPGASVKVSCKASGFTLTEYTIHWVKQAPGQGLEWIGWFYPGSGGIKYNEKFQDRVTLTADESSSTVYMELSRLRSDDTAVYFCARHAFYRNYEYFDVWGTGTMVTVSS VL: DIVMTQAPLSLPVTPGTPASISCRSSKSLLHSNGITYLYWYLQKPGQSPQLLIYQMSNLASGVPDRFSSSGSGTDFTLKISRVEAEDVGVYYCAQNLELPLTFGAGTKLEIK | – | – | – | binds
humanized antibody VH4-VL3 (antibody, V domains shown, IgG1, kappa; tested as culture supernatant; also called VH-HM4 / VL-HM3) VH: EVQLVQSGAEVKKPGASVKVSCKASGFTLTEYTIHWVKQAPGQGLEWIGWFYPGSGGIKYNEKFQDRVTLTADESSSTVYMELSRLRSDDTAVYFCARHAFYRNYEYFDVWGTGTMVTVSS VL: DIVMTQAPFSSPVTLGTPASISCRSSKSLLHSNGITYLYWYQQRPGQSPRLLIYQMSNLASGVPDRFSSSGSGTDFTLKISRVEAEDVGVYYCAQNLELPLTFGAGTKLEIK | – | – | – | binds

Reference: patent US20250136686A1 (GUANGDONG KEGUANDA PHARMACEUTICAL TECHNOLOGY, published 2025)
